Each block holds one binder with its values, some of them ahead of it.
Experiments:
[1] = biological target: T1, rHuman CD44/Fc Chimera, CF (R&D Systems Cat#3660-CD) (human, UniProt P16070 21-220); experiment: MSD ECL titration, Fab 148.9 nM, blank 218
T1 construct: Bought Fc chimera; Fc part of the bought chimera not given

[2] = biological target: T2, rHuman IGF-1 sR (insulin-like growth factor-1 soluble receptor), CF (R&D Systems Cat#391-GR) (human, UniProt P08069 31-932); experiment: MSD ECL titration, Fab 148.9 nM, blank 218
T2 construct: Bought soluble receptor; also called IGF-R1

[3] = biological target: T3, rHuman Erythropoietin R/Fc Chimera, CF (R&D Systems Cat#963-ER) (human, UniProt P19235 25-250); experiment: MSD ECL titration, Fab 148.9 nM, blank 218
T3 construct: Bought Fc chimera; also called EPO R/Fc; EPOR; Fc part of the bought chimera not given
T3 sequence: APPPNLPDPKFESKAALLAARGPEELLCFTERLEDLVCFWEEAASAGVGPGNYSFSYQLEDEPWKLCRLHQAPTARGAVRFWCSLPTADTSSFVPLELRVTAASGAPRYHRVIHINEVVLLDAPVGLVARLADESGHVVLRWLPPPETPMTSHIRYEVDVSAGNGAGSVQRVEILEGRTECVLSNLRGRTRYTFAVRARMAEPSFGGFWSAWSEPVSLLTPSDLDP

[4] = biological target: T4, rHuman IGF-1 sR (insulin-like growth factor-1 soluble receptor), CF (R&D Systems Cat#391-GR) (human, UniProt P08069 31-932); experiment: ECL (MSD multi-spot), antigen on plate, Fab 50 nM
T4 construct: Bought soluble receptor; also called IGF-R1

[5] = biological target: T5, rHuman P-Cadherin/Fc Chimera, CF (R&D Systems Cat#861-PC) (human, UniProt P22223 108-654); experiment: ECL (MSD multi-spot), antigen on plate, Fab 50 nM
T5 construct: Bought Fc chimera; also called CDH3; not shown: Fc of the bought chimera

[6] = biological target: T6, rHuman Erythropoietin R/Fc Chimera, CF (R&D Systems Cat#963-ER) (human, UniProt P19235 25-250); experiment: ECL (MSD multi-spot), antigen on plate, Fab 50 nM
T6 construct: Bought Fc chimera; also called EPO R/Fc; Epo R; not shown: Fc of the bought chimera
T6 sequence: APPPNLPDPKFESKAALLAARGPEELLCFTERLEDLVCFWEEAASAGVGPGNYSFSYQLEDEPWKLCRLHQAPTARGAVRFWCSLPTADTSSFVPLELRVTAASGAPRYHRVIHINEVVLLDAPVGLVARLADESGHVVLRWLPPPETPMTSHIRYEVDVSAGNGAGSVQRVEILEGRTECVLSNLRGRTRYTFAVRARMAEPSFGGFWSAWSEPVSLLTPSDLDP

[7] = biological target: T7, Recombinant Human DLL4 (R&D Systems Cat#1506-D4/CF) (human, UniProt Q9NR61 27-524); experiment: ECL (MSD multi-spot), antigen on plate, Fab 50 nM
T7 construct: Bought recombinant protein; also called delta-like protein 4

[8] = biological target: T8, rHuman ErbB2/Fc Chimera, CF (R&D Systems Cat#1129-ER) (human, UniProt P04626 23-652); experiment: ECL (MSD multi-spot), antigen on plate, Fab 50 nM
T8 construct: Bought Fc chimera; also called HER2/neu; not shown: Fc of the bought chimera

[9] = biological target: T9, rHuman EGF R/Fc Chimera, CF (R&D Systems Cat#344-ER) (human, UniProt P00533 25-645); experiment: ECL (MSD multi-spot), antigen on plate, Fab 50 nM
T9 construct: Bought Fc chimera; also called ErbB-1; not shown: Fc of the bought chimera

[10] = biological target: T10, rHuman HGF R/c-MET/Fc Chimera, CF (R&D Systems Cat#358-MT/CF) (human, UniProt P08581 25-932); experiment: ECL (MSD multi-spot), antigen on plate, Fab 50 nM
T10 construct: Bought Fc chimera; also called HGF R/Fc; not shown: Fc of the bought chimera

[11] = biological target: T11, rHuman CD44/Fc Chimera, CF (R&D Systems Cat#3660-CD) (human, UniProt P16070 21-220); experiment: ECL (MSD multi-spot), antigen on plate, Fab 50 nM
T11 construct: Bought Fc chimera; not shown: Fc of the bought chimera

[12] = biological target: T12, rHuman IGF-1 sR, (IGF-1 sR), CF (R&D Systems Cat#391-GR) (human, UniProt P08069 31-932); experiment: MSD ECL multi-spot plate; Fab 32.5 nM; blank spot 473
T12 construct: also called insulin-like growth factor-1 soluble receptor; IGF-R1

[13] = biological target: T13, rHuman Erythropoietin R/Fc Chimera, CF (R&D Systems Cat#963-ER) (human, UniProt P19235 25-250); experiment: as above
T13 construct: also called EPO R/Fc; Epo R; Fc part of the bought chimera not given
T13 sequence: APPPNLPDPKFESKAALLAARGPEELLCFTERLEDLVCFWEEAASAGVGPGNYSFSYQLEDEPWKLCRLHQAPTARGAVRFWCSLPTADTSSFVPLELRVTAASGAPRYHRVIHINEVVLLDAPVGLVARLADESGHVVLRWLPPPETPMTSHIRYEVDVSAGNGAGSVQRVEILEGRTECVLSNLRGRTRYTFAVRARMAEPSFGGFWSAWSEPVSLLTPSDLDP

[14] = biological target: T14, Recombinant Human DLL4 (R&D Systems Cat#1506-D4/CF) (human, UniProt Q9NR61 27-524); experiment: as above
T14 construct: also called delta-like protein 4

[15] = biological target: T15, rHuman ErbB2/Fc Chimera, CF (R&D Systems Cat#1129-ER) (human, UniProt P04626 23-652); experiment: as above
T15 construct: also called HER2/neu; human epidermal growth factor 2 receptor; Fc part of the bought chimera not given

[16] = biological target: T16, rHuman EGF R/Fc Chimera, CF (R&D Systems Cat#344-ER) (human, UniProt P00533 25-645); experiment: as above
T16 construct: also called epidermal growth factor receptor; Fc part of the bought chimera not given

[17] = biological target: T17, rHuman HGF R/c-MET/Fc Chimera, CF (R&D Systems Cat#358-MT/CF) (human, UniProt P08581 25-932); experiment: as above
T17 construct: also called HGF R/Fc; hepatocyte growth factor receptor; Fc part of the bought chimera not given

[18] = biological target: T18, rHuman Notch-1/Fc Chimera, CF (R&D Systems Cat#3647-TK) (human, UniProt P46531 19-526); experiment: as above
T18 construct: Fc part of the bought chimera not given

[19] = biological target: T19, rHuman CD44/Fc Chimera, CF (R&D Systems Cat#3660-CD) (human, UniProt P16070 21-220); experiment: as above
T19 construct: Fc part of the bought chimera not given
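Further: blank spot per well as comparator with Hit at signal to blank ratio of 4 or more.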

ECL signal [1]: 348
ECL signal [2]: 322
ECL signal [3]: 373
B1: Fab VH1-46_IGHD6-6*01_IGHJ1*01 & L6_IGKJ1*01 (Fab, V domains shown)
VH: QVQLVQSGAEVKKPGASVKVSCKASGYTFTSYYMHWVRQAPGQGLEWMGIINPSGGSTSYAQKFQGRVTMTRDTSTSTVYMELSSLRSEDTAVYYCAREEYSSSSAEYFQHWGQGTLVTVSS
VL: not shown
notes: Expressed in E. coli as Fab: heavy chain with CH1 plus Flag and His tags from Plasmid A, kappa light chain constant region from Plasmid C; also called Fab No. 1

ECL signal [4]: 257 ECL signal
ECL signal [5]: 411 ECL signal
ECL signal [6]: 574 ECL signal
ECL signal [7]: 35300 ECL signal
ECL signal [8]: 397 ECL signal
ECL signal [9]: 350 ECL signal
ECL signal [10]: 257 ECL signal
ECL signal [11]: 262 ECL signal
B2: Fab VH1-46_IGHD6-6*01_IGHJ1*01_S102A_S103P_S104F & L6_IGKJ1*01_S31K (Fab, V domains shown)
VH: QVQLVQSGAEVKKPGASVKVSCKASGYTFTSYYMHWVRQAPGQGLEWMGIINPSGGSTSYAQKFQGRVTMTRDTSTSTVYMELSSLRSEDTAVYYCAREEYAPFSAEYFQHWGQGTLVTVSS
VL: EIVLTQSPATLSLSPGERATLSCRASQSVSKYLAWYQQKPGQAPRLLIYDASNRATGIPARFSGSGSGTDFTLTISSLEPEDFAVYYCQQRSNWPPWTFGQGTKVEIKR
notes: Fab

ECL signal [12]: 561 ECL signal
ECL signal [13]: 673 ECL signal
ECL signal [14]: 2990 ECL signal
ECL signal [15]: 556 ECL signal
ECL signal [16]: 645 ECL signal
ECL signal [17]: 525 ECL signal
ECL signal [18]: 706 ECL signal
ECL signal [19]: 573 ECL signal
B3: Fab VH1-8_IGHD2-2*01_IGHJ6*01 & L12_IGKJ1*01 (Fab, V domains shown)
VH: QVQLVQSGAEVKKPGASVKVSCKASGYTFTSYDINWVRQATGQGLEWMGWMNPNSGNTGYAQKFQGRVTMTRNTSISTAYMELSSLRSEDTAVYYCARGGYCSSTSCYADYYYYYGMDVWGQGTTVTVSS
VL: not shown
